{"source": "patent US11878064B2", "about": "“Nanoparticle/peptide method of blocking potassium channels” (US Department of the Navy, priority 2019, dated 2024)", "origin": "cited, not measured here", "target": "T1, ROMK1 channels (Homo sapiens, UniProt P48048)", "T1 sequence (P48048 1-391)": "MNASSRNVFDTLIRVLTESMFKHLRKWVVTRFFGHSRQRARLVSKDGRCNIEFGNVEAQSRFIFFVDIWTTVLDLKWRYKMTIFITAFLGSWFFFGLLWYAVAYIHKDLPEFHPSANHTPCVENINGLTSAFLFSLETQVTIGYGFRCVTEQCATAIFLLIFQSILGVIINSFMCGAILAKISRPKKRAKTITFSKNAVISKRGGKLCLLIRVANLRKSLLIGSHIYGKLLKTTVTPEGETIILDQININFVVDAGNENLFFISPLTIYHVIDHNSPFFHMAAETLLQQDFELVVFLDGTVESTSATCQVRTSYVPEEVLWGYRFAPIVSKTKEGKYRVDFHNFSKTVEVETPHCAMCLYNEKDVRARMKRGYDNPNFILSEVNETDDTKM", "details": "read-out: binding affinity", "note": "Where no end group is shown, it is not given here.", "data": [{"substance": "tertiapin (ALCNCNRIIIPHMCWKKCGKK; ends and bridges not checked; cysteine pairing not given here; UniProt P56587 1-21, looked up) [TPN]", "values": [{"measurement": "Kd", "result": "~2", "unit": "nM"}]}]}
